The results in this text go back to PMC3326525 (Nature structural & molecular biology, 2011).

What is called stoichiometry N is the number of molecules, sites or subunits per partner or assembly.

In one data set the target is T1, MBP-RNF4 (wild-type) (Rattus norvegicus, UniProt O88846 1-194).
T1 sequence: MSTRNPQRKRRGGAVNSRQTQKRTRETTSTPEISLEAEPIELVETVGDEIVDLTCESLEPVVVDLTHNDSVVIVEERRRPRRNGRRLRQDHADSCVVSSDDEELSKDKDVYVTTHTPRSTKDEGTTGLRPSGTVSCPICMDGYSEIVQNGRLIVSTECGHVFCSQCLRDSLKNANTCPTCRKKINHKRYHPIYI
Briefly: pull-down.

Data set [1] deals with T2, ECFP-RNF4 (wild-type) (Rattus norvegicus, UniProt O88846 1-194).
T2 sequence: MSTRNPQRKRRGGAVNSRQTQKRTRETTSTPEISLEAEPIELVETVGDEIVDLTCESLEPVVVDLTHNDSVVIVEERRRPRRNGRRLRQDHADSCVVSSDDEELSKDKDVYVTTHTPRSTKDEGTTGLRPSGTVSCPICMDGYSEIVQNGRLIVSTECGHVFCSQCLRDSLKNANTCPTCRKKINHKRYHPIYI
In words: FRET or BRET. (In BRET a luciferase serves as donor, and the signal depends on an acceptor being close.)

In data set [2] the target is T2, ECFP-RNF4 (wild-type). In words: FRET or BRET. This is another data set of the same source.
Data set [3] deals with the molecule itself.

Like-named read-outs stand apart in the source and are kept apart here.

B1: UbcH5a (N77A C85S)~Ub oxyester (complex)
chain 1: not shown
chain 2: […]
As for B1, in the data set with MBP-RNF4 (wild-type), the binding result is given as “binds”.

B2: YFP-RING domain of RNF4 (wild-type) (domain or fragment)
chain: VSCPICMDGYSEIVQNGRLIVSTECGHVFCSQCLRDSLKNANTCPTCRKKINHKRYHPIYI
Regarding B2, the binding result with ECFP-RNF4 (wild-type) [1] was “binds”.

B3: YFP-RING M140A R181A (domain or fragment)
chain: VSCPICADGYSEIVQNGRLIVSTECGHVFCSQCLRDSLKNANTCPTCAKKINHKRYHPIYI
In the case of B3, the binding result with ECFP-RNF4 (wild-type) [2] is on record as “binds”.

B4: RNF4 Y193H (natural protein)
chain: MSTRNPQRKRRGGAVNSRQTQKRTRETTSTPEISLEAEPIELVETVGDEIVDLTCESLEPVVVDLTHNDSVVIVEERRRPRRNGRRLRQDHADSCVVSSDDEELSKDKDVYVTTHTPRSTKDEGTTGLRPSGTVSCPICMDGYSEIVQNGRLIVSTECGHVFCSQCLRDSLKNANTCPTCRKKINHKRYHPIHI
In the case of B4, in the data set with ECFP-RNF4 (wild-type) [1], the binding result was “binds”.

B5: RNF4 L152A (natural protein)
chain: MSTRNPQRKRRGGAVNSRQTQKRTRETTSTPEISLEAEPIELVETVGDEIVDLTCESLEPVVVDLTHNDSVVIVEERRRPRRNGRRLRQDHADSCVVSSDDEELSKDKDVYVTTHTPRSTKDEGTTGLRPSGTVSCPICMDGYSEIVQNGRAIVSTECGHVFCSQCLRDSLKNANTCPTCRKKINHKRYHPIYI
Turning to B5, the “stoichiometry N” value in data set [3] amounted to 2.
